Source: paper PMC12207370, “Macrocyclic Peptide Probes for Immunomodulatory Protein CD59: Potent Modulators of Bacterial Toxin Activity and Antibody‐Dependent Cytotoxicity” (Angewandte Chemie (International Ed. in English), 2025)

Molecular target: T1, biotinylated CD59 (Homo sapiens, UniProt P13987)
T1 construct: Recombinant soluble human CD59 with an additional C-terminal cysteine residue
T1 sequence (P13987 26-102 limits assumed): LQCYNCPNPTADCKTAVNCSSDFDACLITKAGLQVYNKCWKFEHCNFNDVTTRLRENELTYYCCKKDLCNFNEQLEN
Assay: mRNA-display cyclic peptide screen against CD59-biotin, NGS abundance after 6th selection round
Details: for Percentage Seq I: counts normalised by total counts of sample Seq I; for Percentage Seq I / Percentage Seq II: percentage of the pool; for Percentage Seq I / Percentage Seq II / Percentage Average / Percentage of the pool, averaged across the two sequencing samples / Percentage of the pool, Seq I / Percentage of the pool, Seq II: sheet R6; for Percentage Seq II: counts normalised by total counts of sample Seq II; for Percentage Average: percentage of the pool averaged across the two sequencing samples; for Counts Seq I / Counts Seq II: raw NGS counts of peptide sequence; for Counts Seq I: sequencing sample Seq I; for Counts Seq I / Counts Seq II / Counts (raw counts for peptide sequence), Seq I / Counts (raw counts for peptide sequence), Seq II: sheet R6 (6th selection round); for Counts Seq II: sequencing sample Seq II; for Counts (raw counts for peptide sequence), Seq I: NGS sample Seq I; for Counts (raw counts for peptide sequence), Seq II: NGS sample Seq II; for Percentage of the pool, averaged across the two sequencing samples: average of Seq I and Seq II; for Percentage of the pool, Seq I: counts normalised by total counts of NGS sample Seq I; for Percentage of the pool, Seq II: counts normalised by total counts of NGS sample Seq II
How it was run: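 Peptide–mRNA fusions were made by in vitro translation with a customised PURE express kit. The kit lacked release factor 1 and methionine and was supplemented with […] initiator tRNA carrying N-chloroacetyl-d-tyrosine. Thioether macrocycles were formed, then enriched and amplified over iterative rounds on CD59-biotin immobilised on streptavidin beads. NGS read counts per sequence were recorded after the 6th selection round.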

Sequence	Percentage Seq I	Percentage Seq II	Percentage Average	Counts Seq I	Counts Seq II	Counts (raw counts for peptide sequence), Seq I	Counts (raw counts for peptide sequence), Seq II	Percentage of the pool, averaged across the two sequencing samples	Percentage of the pool, Seq I	Percentage of the pool, Seq II
CYGGRTLIYAWS	0.028%	0.019%	0.023%	121	8	–	–	–	–	–
WILGSRWWTQR	0.021%	0.021%	0.021%	91	9	–	–	–	–	–
CFQRRTLGPDAI	0.094%	0.088%	0.091%	412	38	–	–	–	–	–
RRDRFDQCVL	–	–	–	–	–	33	5	0.010%	0.00754%	0.012%
CYGGRTFIYTWS	–	–	–	–	–	74	4	0.013%	0.017%	0.009%
LVTGNRDHTRG	0.023%	0.030%	0.027%	100	13	–	–	–	–	–
YVYGSRDRC	–	–	–	–	–	74	5	0.014%	0.017%	0.012%
RVGSQFCAQL	–	–	–	–	–	33	9	0.014%	0.00754%	0.021%
HCWVRGSRDYT	0.028%	0.046%	0.037%	122	20	–	–	–	–	–
CFSARATLDGGW	0.036%	0.030%	0.033%	157	13	–	–	–	–	–
SWTWGNRSSVLG	–	–	–	–	–	35	7	0.012%	0.008%	0.016%
CFSRRLTVGAI	–	–	–	–	–	40	6	0.012%	0.009%	0.014%
WTRGSKDYARG	–	–	–	–	–	49	5	0.011%	0.011%	0.012%
LLGARDYVRLWH	–	–	–	–	–	41	7	0.013%	0.009%	0.016%
RCWVRGSRNYT	–	–	–	–	–	45	4	0.010%	0.010%	0.009%
CFLYRNNPDSV	0.069%	0.067%	0.068%	303	29	–	–	–	–	–
PAWGNRQIQYY	–	–	–	–	–	58	3	0.010%	0.013%	0.007%
CFAGRLAIDAV	–	–	–	–	–	54	8	0.015%	0.012%	0.019%
YIIGSSDYTRG	0.033%	0.039%	0.036%	146	17	–	–	–	–	–
HCWVRGSRNYS	–	–	–	–	–	46	5	0.011%	0.011%	0.012%
QWNRWYGIDER	0.021%	0.023%	0.022%	94	10	–	–	–	–	–
FVRGGLYSVLG	0.020%	0.019%	0.019%	86	8	–	–	–	–	–

Sequence	Percentage Seq I	Percentage Seq II	Percentage Average	Counts Seq I	Counts Seq II	Counts (raw counts for peptide sequence), Seq I	Counts (raw counts for peptide sequence), Seq II	Percentage of the pool, averaged across the two sequencing samples	Percentage of the pool, Seq I	Percentage of the pool, Seq II
CFAHRITDPDTQ	0.023%	0.019%	0.021%	100	8	–	–	–	–	–
SAWGNRQTQYY	1.151%	1.160%	1.156%	5037	500	–	–	–	–	–
HAFGNRSFTRG	–	–	–	–	–	82	5	0.015%	0.019%	0.012%
WRDRLDQCVL	0.019%	0.021%	0.020%	85	9	–	–	–	–	–
WIRGSRWWTQS	0.033%	0.035%	0.034%	146	15	–	–	–	–	–
SAWGNRLIQYY	–	–	–	–	–	80	5	0.015%	0.018%	0.012%
YVRGDLYSVLG	–	–	–	–	–	40	5	0.010%	0.009%	0.012%
AVRGSSFYVWG	0.098%	0.107%	0.102%	427	46	–	–	–	–	–
CFSRRVTYPHQV	–	–	–	–	–	31	8	0.013%	0.007%	0.019%
FVRGDMYSVLG	–	–	–	–	–	39	6	0.011%	0.009%	0.014%
HVFGNRFFTRG	0.031%	0.039%	0.035%	135	17	–	–	–	–	–
HVSGNRSFTRG	0.024%	0.035%	0.029%	104	15	–	–	–	–	–
CFALRLSQTSV	0.018%	0.042%	0.030%	78	18	–	–	–	–	–
VIWGSRLATGG	0.025%	0.026%	0.025%	109	11	–	–	–	–	–
CFAGRLTIGAV	0.056%	0.056%	0.056%	245	24	–	–	–	–	–
CFAARLSNGDT	–	–	–	–	–	73	7	0.016%	0.017%	0.016%
CCGGRTFIYAWS	–	–	–	–	–	44	4	0.010%	0.010%	0.009%
SAWGNRKIQYY	–	–	–	–	–	55	5	0.012%	0.013%	0.012%
HCWVRGGRNYT	0.024%	0.014%	0.019%	104	6	–	–	–	–	–
FVRGDLYSILG	–	–	–	–	–	50	6	0.013%	0.011%	0.014%
SSWAQLPCRS	0.041%	0.051%	0.046%	180	22	–	–	–	–	–
SVRGDLYSVLG	–	–	–	–	–	74	7	0.017%	0.017%	0.016%
